Reference: the RNAGym collection of RNA variant scans (doi:10.7554/elife.80360)

B1: HDV Ribozyme (parent)
chain: GGCCGGCAUGGUCCCAGCCUCCUCGCUGGCGCCGGCUGGGCAACAUUCCGAGGGGACCGUCCCCUCGGUAAUGGCGAAUGGGACCCA

Variants of: B1
Test: self-cleavage, relative activity (ratio to wild type); higher = more cleavage; co-transcriptional

Going from C4G G17A to C4G G17C, the self-cleavage falls from 0.0791 to 0.0354.

Going from C4G G25U to C4G G31C, the self-cleavage falls from 0.109 to 0.108.

Going from C4G G34U to C4G G40A, the self-cleavage falls from 0.864 to 0.237.

First: C4G G50U
Second: C4G G53A
The self-cleavage of the first is higher: 0.527 for the first, 0.277 for the second.

First: C4G G53C
Second: C4G G54A
The self-cleavage of the first is lower: 0.213 for the first, 0.288 for the second.

First: C4G G54U
Second: C4G G59U
The self-cleavage of the first is lower: 0.464 for the first, 0.475 for the second.

Going from C4G G67A to C4G G67U, the self-cleavage falls from 0.437 to 0.227.

First: C4G G73C
Second: C4G G74A
The self-cleavage of the first is lower: 0.0361 for the first, 0.0639 for the second.

First: C4G G82A
Second: C4G G82C
The self-cleavage of the first is higher: 0.0674 for the first, 0 for the second.

Compared with C4G U9A, C4G U12A is lower in self-cleavage: 0.534 for the first, 0 for the second.

First: C4G U20C
Second: C4G U23G
The self-cleavage of the first is higher: 0.0791 for the first, 0.0386 for the second.

Compared with C4G U37C, C4G U47A is lower in self-cleavage: 0.375 for the first, 0.346 for the second.

Compared with C4G U65G, C4U A8G is higher in self-cleavage: 0.231 for the first, 0.762 for the second.

Compared with C4U A8U, C4U A16G is higher in self-cleavage: 0.415 for the first, 0.862 for the second.

First: C4U A16U
Second: C4U A56G
The self-cleavage of the first is lower: 0.462 for the first, 0.665 for the second.

First: C4U A56U
Second: C4U A70C
The self-cleavage of the first is higher: 0.898 for the first, 0.482 for the second.

First: C4U A71G
Second: C4U A77U
The self-cleavage of the first is higher: 0.643 for the first, 0.415 for the second.

Compared with C4U A78C, C4U A83U is higher in self-cleavage: 0.0378 for the first, 0.115 for the second.

First: C4U A87G
Second: C4U A87U
The self-cleavage of the first is lower: 0.599 for the first, 0.817 for the second.

Compared with C4U C7A, C4U C7U is higher in self-cleavage: 0.104 for the first, 0.457 for the second.

Compared with C4U C13A, C4U C15G is higher in self-cleavage: 0.122 for the first, 0.262 for the second.

C4U C21A and C4U C21G are the same in self-cleavage: 0 for the first, 0 for the second.

First: C4U C22U
Second: C4U C26A
The self-cleavage of the first is lower: 0.259 for the first, 0.773 for the second.

First: C4U C30A
Second: C4U C30G
The self-cleavage of the first is higher: 0.133 for the first, 0 for the second.

Going from C4U C32A to C4U C33A, the self-cleavage falls from 0.0906 to 0.0845.

First: C4U C41A
Second: C4U C44A
The self-cleavage of the first is lower: 0.434 for the first, 0.578 for the second.

Going from C4U C44U to C4U C62A, the self-cleavage rises from 0.394 to 1.06.

First: C4U C63A
Second: C4U C66G
The self-cleavage of the first is higher: 0.95 for the first, 0.875 for the second.

Going from C4U C75A to C4U C75U, the self-cleavage rises from 0.128 to 0.155.

Going from C4U C84G to C4U C86U, the self-cleavage rises from 0.19 to 0.889.

Going from C4U G6C to C4U G10U, the self-cleavage rises from 0 to 0.163.

Compared with C4U G17C, C4U G25U is lower in self-cleavage: 0.147 for the first, 0.0287 for the second.

Going from C4U G29A to C4U G29C, the self-cleavage rises from 0 to 0.0396.

Going from C4U G38A to C4U G38U, the self-cleavage rises from 0.0978 to 0.13.

Compared with C4U G39C, C4U G40U is higher in self-cleavage: 0.0536 for the first, 0.48 for the second.

Going from C4U G50U to C4U G59C, the self-cleavage rises from 0.656 to 0.81.

First: C4U G68A
Second: C4U G68C
The self-cleavage of the first is lower: 0.604 for the first, 0.635 for the second.

Going from C4U G73A to C4U G81C, the self-cleavage falls from 0.293 to 0.135.

First: C4U U12A
Second: C4U U12C
The self-cleavage of the first is lower: 0.111 for the first, 0.145 for the second.

First: C4U U27A
Second: C4U U27G
The self-cleavage of the first is lower: 0.246 for the first, 0.453 for the second.

Going from C4U U37A to C4U U47A, the self-cleavage rises from 0 to 0.739.

First: C4U U60G
Second: C4U U79C
The self-cleavage of the first is higher: 0.939 for the first, 0.136 for the second.

Going from G5A to G5A A16G, the self-cleavage rises from 0.199 to 0.35.

Going from G5A A51G to G5A A51U, the self-cleavage falls from 0.203 to 0.104.

First: G5A A56G
Second: G5A A56U
The self-cleavage of the first is higher: 0.225 for the first, 0.106 for the second.

Compared with G5A A70U, G5A A71U is higher in self-cleavage: 0.19 for the first, 0.231 for the second.

First: G5A A83C
Second: G5A A83U
The self-cleavage of the first is higher: 0.175 for the first, 0.0426 for the second.

First: G5A A87C
Second: G5A C14A
The self-cleavage of the first is higher: 0.124 for the first, 0 for the second.

Going from G5A C14G to G5A C15G, the self-cleavage rises from 0.0639 to 0.151.

First: G5A C15U
Second: G5A C18G
The self-cleavage of the first is higher: 0.0475 for the first, 0 for the second.

Compared with G5A C18U, G5A C19G is higher in self-cleavage: 0 for the first, 0.0898 for the second.

Going from G5A C21G to G5A C21U, the self-cleavage rises from 0.0811 to 0.163.

Compared with G5A C22A, G5A C24A is higher in self-cleavage: 0.0426 for the first, 0.0978 for the second.

First: G5A C41U
Second: G5A C44A
The self-cleavage of the first is higher: 0.277 for the first, 0 for the second.

Compared with G5A C44U, G5A C48A is lower in self-cleavage: 0.0627 for the first, 0.0437 for the second.

Going from G5A C48G to G5A C49A, the self-cleavage rises from 0.101 to 0.302.

First: G5A C49U
Second: G5A C63A
The self-cleavage of the first is lower: 0.18 for the first, 0.277 for the second.

Compared with G5A C63G, G5A C66A is higher in self-cleavage: 0.0755 for the first, 0.173 for the second.

First: G5A C84G
Second: G5A C85A
The self-cleavage of the first is lower: 0.0875 for the first, 0.113 for the second.

Compared with G5A G6A, G5A G10A is higher in self-cleavage: 0 for the first, 0.203 for the second.

Compared with G5A G10C, G5A G11U is lower in self-cleavage: 0.308 for the first, 0.0665 for the second.

First: G5A G17C
Second: G5A G25C
The self-cleavage of the first is lower: 0.0594 for the first, 0.0923 for the second.

Compared with G5A G25U, G5A G28A is higher in self-cleavage: 0.0339 for the first, 0.0378 for the second.

First: G5A G28C
Second: G5A G31U
The self-cleavage of the first is higher: 0.104 for the first, 0.0332 for the second.

Going from G5A G35U to G5A G38A, the self-cleavage rises from 0.0396 to 0.147.

Compared with G5A G38U, G5A G40C is higher in self-cleavage: 0.0804 for the first, 0.136 for the second.

Going from G5A G50A to G5A G52A, the self-cleavage rises from 0.192 to 0.227.

Going from G5A G52C to G5A G53U, the self-cleavage rises from 0.253 to 0.309.

First: G5A G54A
Second: G5A G55U
The self-cleavage of the first is higher: 0.177 for the first, 0.122 for the second.

Going from G5A G59C to G5A G59U, the self-cleavage rises from 0.219 to 0.222.

First: G5A G67A
Second: G5A G67U
The self-cleavage of the first is lower: 0.125 for the first, 0.17 for the second.

Compared with G5A G68A, G5A G68C is higher in self-cleavage: 0.164 for the first, 0.17 for the second.

First: G5A G74C
Second: G5A G80A
The self-cleavage of the first is lower: 0.0923 for the first, 0.143 for the second.

Going from G5A G80U to G5A G81A, the self-cleavage rises from 0.0971 to 0.0978.

Going from G5A G82C to G5A U9C, the self-cleavage rises from 0 to 0.0639.

First: G5A U20A
Second: G5A U20G
The self-cleavage of the first is lower: 0.0437 for the first, 0.185 for the second.

Going from G5A U23G to G5A U37C, the self-cleavage rises from 0.0923 to 0.764.

Going from G5A U47A to G5A U60A, the self-cleavage falls from 0.208 to 0.125.

First: G5A U60G
Second: G5A U65C
The self-cleavage of the first is lower: 0 for the first, 0.308 for the second.

Going from G5A U79G to G5C, the self-cleavage rises from 0.0923 to 0.213.

Compared with G5C A8C, G5C A16G is higher in self-cleavage: 0 for the first, 0.145 for the second.

Compared with G5C A16U, G5C A43U is lower in self-cleavage: 0.237 for the first, 0.0489 for the second.

First: G5C A56C
Second: G5C A78U
The self-cleavage of the first is lower: 0 for the first, 0.0755 for the second.

In the case of G5C A83U, the self-cleavage is reported as 0.
